From doi:10.1101/2021.03.15.435138

Biological target: C-terminal hexahistidyl-tagged GluN3A subunit (UniProt Q9R1M7)
Test: pull-down

Sequence of C-terminal hexahistidyl-tagged GluN3A subunit (Q9R1M7 24-1135): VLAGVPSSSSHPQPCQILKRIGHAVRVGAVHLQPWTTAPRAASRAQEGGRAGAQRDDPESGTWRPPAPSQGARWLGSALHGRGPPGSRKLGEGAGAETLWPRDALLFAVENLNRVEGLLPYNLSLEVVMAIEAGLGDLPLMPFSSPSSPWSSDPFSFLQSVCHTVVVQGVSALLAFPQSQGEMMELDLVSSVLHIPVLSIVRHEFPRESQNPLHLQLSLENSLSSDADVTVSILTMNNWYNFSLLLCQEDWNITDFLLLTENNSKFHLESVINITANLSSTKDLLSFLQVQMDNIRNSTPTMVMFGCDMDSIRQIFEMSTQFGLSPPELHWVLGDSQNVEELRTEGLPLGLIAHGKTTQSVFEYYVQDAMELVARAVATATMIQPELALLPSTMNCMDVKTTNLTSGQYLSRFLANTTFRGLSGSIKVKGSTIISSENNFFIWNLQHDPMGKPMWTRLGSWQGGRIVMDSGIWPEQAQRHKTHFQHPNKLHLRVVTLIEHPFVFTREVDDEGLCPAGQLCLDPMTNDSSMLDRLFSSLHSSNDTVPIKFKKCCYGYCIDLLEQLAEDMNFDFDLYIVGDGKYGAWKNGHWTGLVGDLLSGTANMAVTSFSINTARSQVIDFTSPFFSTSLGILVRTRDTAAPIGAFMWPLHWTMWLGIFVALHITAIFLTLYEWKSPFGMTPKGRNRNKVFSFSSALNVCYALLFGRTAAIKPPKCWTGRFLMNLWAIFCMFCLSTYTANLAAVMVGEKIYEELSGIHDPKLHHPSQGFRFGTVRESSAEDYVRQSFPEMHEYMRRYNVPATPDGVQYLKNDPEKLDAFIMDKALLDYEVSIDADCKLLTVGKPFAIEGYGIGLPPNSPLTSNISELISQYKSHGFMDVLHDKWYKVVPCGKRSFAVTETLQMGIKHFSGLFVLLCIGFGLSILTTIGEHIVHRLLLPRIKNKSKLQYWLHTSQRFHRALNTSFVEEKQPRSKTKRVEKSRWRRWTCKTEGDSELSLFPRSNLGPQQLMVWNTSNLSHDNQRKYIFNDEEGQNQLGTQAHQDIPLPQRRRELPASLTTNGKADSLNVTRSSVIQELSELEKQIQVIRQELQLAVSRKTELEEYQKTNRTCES

## GluN1-1a (splice variant 1a) NMDA receptor subunit, wild type (from UniProt P35439 19-938)
  stoichiometry N: 1

## GluN1^1-802, M4-deleted GluN1 (from UniProt P35439 19-802) (domain or fragment)
  stoichiometry N: 1
